{"source": "patent US20150315248", "proteins": {"B1": {"name": "Dif153 (CD2830, hypothetical protein, zinc metallopeptidase), recombinant (protein)", "chain": "DSTTIQQNKDTLSQIVVFPTGNYDKNEANAMVNRLANIDGKYLNALKQNNLKIKLLSGKLTDEKEYAYLKGVVPKGWEGTGKTWDDVPGLGGSTVALRIGFSNKGKGHDAINLELHETAHAIDHIVLNDISKSAQFKQIFAKEGRSLGNVNYLGVYPEEFFAESFAYYYLNQDTNSKLKSACPQTYSFLQNLAK"}}, "molecular_target": "gelatin substrate", "data": [{"protein": "B1", "values": [{"measurement": "fluorimetric analysis of gelatin cleavage", "result": "the recombinant protein has a weak gelatinase/collagenase activity in the presence of zinc, but not in the presence of nickel and copper or in the apo form"}]}]}
